Experimental data taken from the supplement of paper PMC12067230.

B1: V-17-A; numbered along this chain (parent)
chain: EASNCFAIRHFENKFAVETLICFNLFLNSQEKHY

Variants of: B1
Assay: amyloid nucleation score relative to WT ADan (yeast Sup35 reporter selection) (log enrichment difference); higher = more amyloid nucleation
Description: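 Deep mutational scan of the ADan peptide fused to the Sup35 nucleation domain (SupN) in S. cerevisiae [psi-pin-], covering all single amino-acid substitutions and stop truncations (truncations = sequence up to the stop). After 24 h Cu2+ induction, cells were selected on -ADE-URA plates for 7 d at 30 °C. The nucleation score is log enrichment (output/input, deep sequencing) minus that of WT ADan, as the error-weighted mean of 3 biological replicates (DiMSum).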

Amyloid nucleation score of substitutions, site by site:
V17: A 0.689 | Q -1.12 | D -0.492 | P 0.114 | W -0.301 | N -0.235 | G 0.953 | H -1.16 | C 0.711 | R 0.126 | I 0.523 | K 0.416 | E -1.74 | Y -2.81 | M -1.07 | L -0.705 | F -0.0103 | T -0.513 | S 0.586
E18: F -2.56 | C -1.06 | L -2.63 | A -0.809 | P 0.645 | R -0.108 | T -1.61 | V -2.72 | G 0.127 | Q -0.141 | H -0.855 | M -3.07 | D 0.406 | N 0.236 | S -0.355 | K 0.239 | W -4.12 | Y -5.47 | I -3.49
A16: S 0.414 | P -1.2 | W -0.102 | H 0.76 | Q 0.708 | K 0.514 | G 0.407 | L -0.774 | F 0.651 | V -0.233 | Y 0.572 | M -0.212 | T 0.448 | I -0.647 | N 0.755 | R 0.372
L27: Q 0.391 | S 0.669 | W 0.0695 | I 0.00956 | K -0.947 | M 0.15 | A -0.084 | G 0.726 | F -0.518 | H 0.303 | T 0.731 | V 0.187 | Y 0.163 | P 0.545 | D 0.457 | N 0.524 | E 0.567 | C 0.66 | R -1.01
H33: D 0.264 | S -0.164 | G -0.479 | T -0.406 | M -0.289 | I -1.01 | R -0.172 | L -0.693 | Q -0.171 | N 0.15 | E 0.174 | V -0.668 | F -0.205 | P -0.211 | C -1.33 | A -0.505 | K -0.0712
C22: F -0.753 | N 0.532 | W -2.89 | K -2.31 | E -2.4 | P -3.23 | G -1.17 | Q 0.969 | H -1.92 | D -3.23 | L -0.346 | S -1.65 | I -0.375 | A 0.347 | R -3.03 | Y -2.4 | T -0.69 | V 0.222
N24: K -3.17 | F -3.3 | H -3.55 | R -4.05 | M -3.68 | P -0.19 | S -0.773 | Y -3.1 | W -4.76 | T -2.11 | E -3.7 | G -0.57 | D -3.51 | L -3.39 | C -4.06 | A -1.52 | V -2.78 | Q -0.992 | I -3.74
T19: V -3.41 | W -2.17 | Y -0.511 | P 0.859 | G 0.166 | L -4.84 | H -0.0921 | I -3.44 | F -3.39 | S 0.268 | K 0.347 | C -2.47 | M -1.99 | A -2.16 | E -0.714 | N 0.196 | Q 0.45 | D -0.804 | R 0.563
F26: H 0.258 | E 0.392 | W 0.102 | K -3.31 | A -0.314 | R -2.51 | D -0.707 | M -0.622 | P -3.34 | C 0.2 | T -0.0939 | G 0.778 | S -0.00989 | V -0.146 | Y -0.164 | L -0.42 | I -0.509 | Q -0.394 | N 0.113
L20: W -2.59 | G 0.273 | H -2.5 | A -1.66 | E -3.91 | P 0.75 | D -2.35 | K -4.53 | T -2.92 | Q -1.95 | S -3.53 | M 1.01 | C -0.49 | I -0.22 | V -1.46 | F -0.103 | R -3.67 | N -1.24 | Y -2.66
I21: S 0.32 | H 0.679 | K -0.182 | F 0.0204 | E -0.48 | R -1.05 | A -0.465 | T 0.7 | P -3.66 | L -0.0345 | D -3.79 | W 0.109 | C 0.511 | Y 0.68 | M -0.308 | N 0.877 | G -0.00868 | V -0.0338 | Q 0.332
K32: L -0.598 | Y -0.0344 | T 0.234 | G 0.113 | W -0.739 | M -0.157 | S 0.198 | P 0.00117 | D 0.768 | Q 0.041 | V -0.601 | C -0.144 | N 0.686 | H 0.279 | R -0.086 | I -1.31 | E 0.78 | A 0.179 | F -0.726
N28: Q -0.0342 | Y -1.12 | H -1.83 | K -2.63 | T -0.313 | G 0.0833 | A 0.139 | C 0.468 | P 0.0596 | V -1.04 | F -0.101 | M -0.403 | S -0.365 | I -0.963 | D -0.0589 | E -0.442 | W -1.06 | L -0.936 | R -2.75
S29: I -1.29 | Q 0.312 | E 0.219 | H -0.577 | F -1.68 | R -1.08 | V -0.294 | M -0.489 | G -0.16 | N 0.0767 | K 0.205 | P -0.168 | T 0.043 | W -1.86 | Y -1.65 | A -0.27 | L -0.878 | C -0.0428 | D 0.326
L25: Y 0.539 | A 0.9 | H -2.4 | D -1.12 | W -2.87 | K -2.69 | Q 0.382 | S -2.33 | I -0.254 | F 0.0915 | R -3.04 | T 0.368 | V -0.125 | P -1.7 | N 0.307 | E -1.98 | M 0.178 | G -1.88 | C 0.731
F23: W -0.121 | N -0.504 | Y 0.115 | V 0.2 | E 0.416 | P -1.99 | K 0.342 | A 0.41 | C 0.666 | G 0.469 | H 0.305 | I -0.248 | R 0.617 | D 0.717 | M 0.264 | Q 0.146 | L 0.404
E31: R -2.51 | Y -2.5 | H -1.64 | L -3.31 | T -1.22 | P -0.569 | A -1.39 | G -0.564 | K -1.84 | W -6.44 | M -3.06 | N -0.844 | C -2.07 | F -5.7 | D -0.000529 | Q -0.871 | I -2.59 | V -1.09 | S -0.961
Q30: F -0.531 | M -0.23 | P -0.153 | A -0.161 | K -1.41 | E 0.219 | R -0.927 | C -0.317 | I -0.931 | T -0.212 | Y -0.751 | V -0.127 | S -0.0951 | N -0.383 | D 0.207 | H -0.33 | G -0.112 | L -0.134 | W -0.8
